Blank lines part the entries; values can stand above or below the binder they belong to.
How the values were obtained:
β-catenin [1] = molecular target: T1, β-catenin (UniProt P35222 1-781); experiment: anti-Flag M2 affinity purification from HEK293 extracts, LC-MS/MS and immunoblot of eluates
T1 sequence (looked up): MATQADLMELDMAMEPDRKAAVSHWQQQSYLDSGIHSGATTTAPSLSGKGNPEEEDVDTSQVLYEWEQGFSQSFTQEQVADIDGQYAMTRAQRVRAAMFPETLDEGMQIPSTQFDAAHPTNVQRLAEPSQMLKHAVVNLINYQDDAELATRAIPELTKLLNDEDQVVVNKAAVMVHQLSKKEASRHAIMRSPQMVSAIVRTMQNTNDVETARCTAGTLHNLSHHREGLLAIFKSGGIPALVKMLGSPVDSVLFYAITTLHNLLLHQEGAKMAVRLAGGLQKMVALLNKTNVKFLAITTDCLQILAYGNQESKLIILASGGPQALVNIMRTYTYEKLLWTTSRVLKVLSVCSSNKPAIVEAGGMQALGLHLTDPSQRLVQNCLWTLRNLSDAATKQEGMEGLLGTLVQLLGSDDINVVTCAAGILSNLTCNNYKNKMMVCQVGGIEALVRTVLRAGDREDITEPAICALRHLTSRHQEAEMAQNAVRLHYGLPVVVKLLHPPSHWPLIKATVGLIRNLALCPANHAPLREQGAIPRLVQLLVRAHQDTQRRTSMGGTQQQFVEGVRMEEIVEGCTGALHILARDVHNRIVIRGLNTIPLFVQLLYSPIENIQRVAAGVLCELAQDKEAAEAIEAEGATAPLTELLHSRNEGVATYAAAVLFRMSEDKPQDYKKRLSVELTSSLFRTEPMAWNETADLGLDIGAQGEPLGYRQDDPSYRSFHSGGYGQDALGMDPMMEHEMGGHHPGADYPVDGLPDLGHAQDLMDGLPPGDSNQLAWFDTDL
Procedure: FIG. 1. Purification of RORα-containing complex and identification of β-catenin as a binding partner (A) RORα-containing complex was purified from extracts obtained from HEK293 cells stably expressing Flag-tagged RORα. As a negative control, a mock purification from HEK293 cells stably expressing an empty vector was performed. The bound proteins were resolved by SDS-PAGE and prepared for LC-MS/MS analysis. […] (C) β-catenin and GRIP1 were detected from the elutes by immunoblot analysis. (D) Coimmunoprecipitation of endogenous RORα with β-catenin in HEK293 cells. (E) Ni+-NTA-agarose pulldown assay was performed with plasmids expressing each GFP-tagged β-catenin deletion construct and HisMax-RORα. (F) Illustration of the structure of various β-catenin deletion constructs and binding to RORα.
Purification of RORα-Containing Complex and Identification of β-Catenin as a Binding Partner To investigate the as-yet-unidentified functional modules of RORα, we used a Flag epitope-tag strategy to purify RORα-containing complexes. We generated cell lines that stably express Flag-tagged RORα, and incubated the extracts in anti-Flag M2 affinity gel. After washing with buffer containing increasing salt concentrations of up to 500 mM, the proteins retained on the affinity chromatography column were eluted with buffer containing Flag peptide. […]

PKCδ = PKCδ (UniProt Q05655 1-676); experiment: in vivo coimmunoprecipitation
Sequence of PKCδ (Q05655 whole entry, stated change not applied): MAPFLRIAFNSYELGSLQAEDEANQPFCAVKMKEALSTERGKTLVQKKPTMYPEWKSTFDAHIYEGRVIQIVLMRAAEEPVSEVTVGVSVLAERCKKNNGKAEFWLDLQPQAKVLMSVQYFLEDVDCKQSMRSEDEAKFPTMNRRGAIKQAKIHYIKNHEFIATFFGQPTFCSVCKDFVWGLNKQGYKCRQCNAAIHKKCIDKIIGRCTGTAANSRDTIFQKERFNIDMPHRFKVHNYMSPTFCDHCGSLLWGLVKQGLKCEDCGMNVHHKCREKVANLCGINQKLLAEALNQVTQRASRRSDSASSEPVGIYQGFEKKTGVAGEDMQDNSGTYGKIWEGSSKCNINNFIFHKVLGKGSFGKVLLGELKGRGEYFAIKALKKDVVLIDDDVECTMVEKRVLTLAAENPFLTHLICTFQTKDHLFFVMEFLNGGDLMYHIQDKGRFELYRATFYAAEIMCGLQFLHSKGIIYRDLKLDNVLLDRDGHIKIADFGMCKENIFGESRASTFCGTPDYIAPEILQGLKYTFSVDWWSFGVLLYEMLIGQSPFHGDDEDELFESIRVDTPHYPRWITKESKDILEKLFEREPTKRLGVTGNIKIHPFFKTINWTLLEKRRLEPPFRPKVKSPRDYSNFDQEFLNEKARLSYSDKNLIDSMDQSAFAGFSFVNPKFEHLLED

PKCβ2 = PKCβ2 (UniProt P05771-2 1-673); experiment: in vivo coimmunoprecipitation
Sequence of PKCβ2 (P05771 other isoform, or with tags, fused parts or gaps): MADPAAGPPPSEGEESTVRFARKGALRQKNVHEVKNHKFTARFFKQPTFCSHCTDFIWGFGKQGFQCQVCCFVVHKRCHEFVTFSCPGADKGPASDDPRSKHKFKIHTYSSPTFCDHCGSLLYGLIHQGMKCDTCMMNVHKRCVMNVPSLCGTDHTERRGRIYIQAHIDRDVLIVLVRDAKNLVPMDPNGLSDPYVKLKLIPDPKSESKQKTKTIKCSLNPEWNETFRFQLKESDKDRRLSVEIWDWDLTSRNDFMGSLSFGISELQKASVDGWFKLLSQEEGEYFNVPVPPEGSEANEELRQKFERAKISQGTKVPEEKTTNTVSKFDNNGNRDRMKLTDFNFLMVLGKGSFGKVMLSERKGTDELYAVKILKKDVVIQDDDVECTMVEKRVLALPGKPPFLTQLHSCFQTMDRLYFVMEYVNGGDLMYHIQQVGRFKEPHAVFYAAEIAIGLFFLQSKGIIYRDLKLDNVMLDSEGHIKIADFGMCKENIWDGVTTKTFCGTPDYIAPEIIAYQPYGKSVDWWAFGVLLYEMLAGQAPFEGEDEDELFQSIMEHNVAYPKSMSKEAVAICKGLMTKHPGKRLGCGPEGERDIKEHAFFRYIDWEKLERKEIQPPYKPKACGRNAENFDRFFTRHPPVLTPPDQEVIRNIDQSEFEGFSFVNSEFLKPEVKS

PKCε = molecular target: T2, PKCε (UniProt Q02156 1-737); experiment: in vivo coimmunoprecipitation
T2 sequence (looked up): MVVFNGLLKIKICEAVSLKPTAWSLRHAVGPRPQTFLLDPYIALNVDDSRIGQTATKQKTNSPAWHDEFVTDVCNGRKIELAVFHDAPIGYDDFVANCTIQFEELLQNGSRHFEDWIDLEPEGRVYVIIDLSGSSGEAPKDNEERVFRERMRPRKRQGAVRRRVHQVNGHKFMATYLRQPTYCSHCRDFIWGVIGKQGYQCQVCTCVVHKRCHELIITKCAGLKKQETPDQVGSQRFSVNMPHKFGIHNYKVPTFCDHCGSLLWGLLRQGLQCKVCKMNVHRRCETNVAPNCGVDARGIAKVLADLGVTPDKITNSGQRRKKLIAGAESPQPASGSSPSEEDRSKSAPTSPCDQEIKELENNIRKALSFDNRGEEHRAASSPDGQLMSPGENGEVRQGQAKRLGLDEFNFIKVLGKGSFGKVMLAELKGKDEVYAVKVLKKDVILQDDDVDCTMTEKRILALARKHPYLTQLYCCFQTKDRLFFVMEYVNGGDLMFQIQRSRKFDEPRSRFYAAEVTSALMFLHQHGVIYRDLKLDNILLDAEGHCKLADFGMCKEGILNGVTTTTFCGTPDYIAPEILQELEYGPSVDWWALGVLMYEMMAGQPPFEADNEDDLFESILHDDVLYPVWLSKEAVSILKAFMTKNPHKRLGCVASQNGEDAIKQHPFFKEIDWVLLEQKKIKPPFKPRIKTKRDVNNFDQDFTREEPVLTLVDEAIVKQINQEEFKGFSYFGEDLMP

PKCη = PKCη (UniProt P24723 1-683); experiment: in vivo coimmunoprecipitation
Sequence of PKCη (P24723 whole entry): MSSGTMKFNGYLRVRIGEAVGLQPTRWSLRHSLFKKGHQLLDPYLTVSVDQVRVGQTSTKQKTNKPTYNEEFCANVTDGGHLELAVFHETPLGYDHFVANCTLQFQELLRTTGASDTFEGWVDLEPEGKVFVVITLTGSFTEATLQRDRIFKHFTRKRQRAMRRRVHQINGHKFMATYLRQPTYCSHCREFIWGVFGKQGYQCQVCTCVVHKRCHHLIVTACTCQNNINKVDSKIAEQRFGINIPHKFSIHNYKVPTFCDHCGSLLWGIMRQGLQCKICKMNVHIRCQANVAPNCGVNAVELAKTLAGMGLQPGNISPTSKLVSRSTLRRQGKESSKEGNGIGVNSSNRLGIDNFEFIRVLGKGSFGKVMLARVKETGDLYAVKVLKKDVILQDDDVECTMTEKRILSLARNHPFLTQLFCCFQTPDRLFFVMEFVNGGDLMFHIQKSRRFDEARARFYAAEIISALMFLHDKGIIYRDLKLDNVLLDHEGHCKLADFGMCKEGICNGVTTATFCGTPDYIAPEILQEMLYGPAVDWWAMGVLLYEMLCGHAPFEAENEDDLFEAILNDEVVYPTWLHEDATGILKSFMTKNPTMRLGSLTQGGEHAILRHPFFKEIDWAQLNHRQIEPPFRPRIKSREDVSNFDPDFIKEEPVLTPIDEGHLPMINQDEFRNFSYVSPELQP

β-catenin [2] = molecular target: T1, β-catenin; experiment: co-IP with anti-Flag antibody from HCT116 cells, immunoblot for β-catenin
Procedure: FIG. 4. PKCα-dependent phosphorylation of RORα is crucial for downregulation of Wnt/β-catenin target genes (A) The specificity of the antibody raised against phosphorylated RORαS35 peptide (SEQ ID NO:18) was assessed by dot blot analysis. (B) Treatment of TPA increased phophorylated RORα on S35 site as assessed by immunoprecipitation with anti-phospho-RORαS35 antibody. […] (D) Treatment of Go6976, a PKCα inhibitor, abolished TPA-dependent phosphorylation of RORα as assessed by immonoblotting with anti-phospho-RORαS35 antibody. (E) HCT116 cells were transfected with Flag-RORα WT, S35D, or S35A, and the cell extracts were immunoprecipitated with anti-Flag antibody followed by immunoblotting against anti-β-catenin antibody. (F) Coimmunoprecipitation assay of β-catenin with either RORαWT or S35A in HCT116 cells after treatment with TPA in the absence or presence of Go6976. (G) ChIP analysis on the cyclin D1 promoter after transfection with Flag-RORαWT, S35A, or S35D in HCT116 cells. (H) ChIP analysis on the cyclin D1 promoter in HCT116 cells after TPA treatment for indicated time. […] (J) Real-time quantitative RT-PCR analysis of the cyclin D1 transcript in HCT116 cells in the presence of TPA for indicated time. (K) Knockdown effect of siRNA against RORα or PKCα was assessed in the expression of the cyclin D1 transcript in HCT116 cells. […]

B1: Flag-tagged RORα (receptor, UniProt P35398 1-523, looked up)
chain: MESAPAAPDPAASEPGSSGADAAAGSRETPLNQESARKSEPPAPVRRQSYSSTSRGISVTKKTHTSQIEIIPCKICGDKSSGIHYGVITCEGCKGFFRRSQQSNATYSCPRQKNCLIDRTSRNRCQHCRLQKCLAVGMSRDAVKFGRMSKKQRDSLYAEVQKHRMQQQQRDHQQQPGEAEPLTPTYNISANGLTELHDDLSNYIDGHTPEGSKADSAVSSFYLDIQPSPDQSGLDINGIKPEPICDYTPASGFFPYCSFTNGETSPTVSMAELEHLAQNISKSHLETCQYLREELQQITWQTFLQEEIENYQNKQREVMWQLCAIKITEAIQYVVEFAKRIDGFMELCQNDQIVLLKAGSLEVVFIRMCRAFDSQNNTVYFDGKYASPDVFKSLGCEDFISFVFEFGKSLCSMHLTEDEIALFSAFVLMSADRSWLQEKVKIEKLQQKIQLALQHVLQKNHREDGILTKLICKVSTLRALCGRHTEKLMAFKAIYPDIVRLHFPPLYKELFTSEFEPAMQIDG
notes: also called Flag-RORα; Flag-RORα WT; not shown: Flag tag
- binding result (β-catenin [1]): binds

B3: Flag-RORα DBD mutant (C90A) (receptor, UniProt P35398 1-523, looked up)
chain: MESAPAAPDPAASEPGSSGADAAAGSRETPLNQESARKSEPPAPVRRQSYSSTSRGISVTKKTHTSQIEIIPCKICGDKSSGIHYGVITAEGCKGFFRRSQQSNATYSCPRQKNCLIDRTSRNRCQHCRLQKCLAVGMSRDAVKFGRMSKKQRDSLYAEVQKHRMQQQQRDHQQQPGEAEPLTPTYNISANGLTELHDDLSNYIDGHTPEGSKADSAVSSFYLDIQPSPDQSGLDINGIKPEPICDYTPASGFFPYCSFTNGETSPTVSMAELEHLAQNISKSHLETCQYLREELQQITWQTFLQEEIENYQNKQREVMWQLCAIKITEAIQYVVEFAKRIDGFMELCQNDQIVLLKAGSLEVVFIRMCRAFDSQNNTVYFDGKYASPDVFKSLGCEDFISFVFEFGKSLCSMHLTEDEIALFSAFVLMSADRSWLQEKVKIEKLQQKIQLALQHVLQKNHREDGILTKLICKVSTLRALCGRHTEKLMAFKAIYPDIVRLHFPPLYKELFTSEFEPAMQIDG
notes: also called RORαC90A; not shown: Flag tag
- binding result (β-catenin [2]): binds

The next lines start with the values.

- binding result (PKCδ): no binding
- binding result (PKCβ2): no binding
- binding result (PKCε): no binding
- binding result (PKCη): no binding
B2: RORα (receptor, UniProt P35398 1-523, looked up)
chain: MESAPAAPDPAASEPGSSGADAAAGSRETPLNQESARKSEPPAPVRRQSYSSTSRGISVTKKTHTSQIEIIPCKICGDKSSGIHYGVITCEGCKGFFRRSQQSNATYSCPRQKNCLIDRTSRNRCQHCRLQKCLAVGMSRDAVKFGRMSKKQRDSLYAEVQKHRMQQQQRDHQQQPGEAEPLTPTYNISANGLTELHDDLSNYIDGHTPEGSKADSAVSSFYLDIQPSPDQSGLDINGIKPEPICDYTPASGFFPYCSFTNGETSPTVSMAELEHLAQNISKSHLETCQYLREELQQITWQTFLQEEIENYQNKQREVMWQLCAIKITEAIQYVVEFAKRIDGFMELCQNDQIVLLKAGSLEVVFIRMCRAFDSQNNTVYFDGKYASPDVFKSLGCEDFISFVFEFGKSLCSMHLTEDEIALFSAFVLMSADRSWLQEKVKIEKLQQKIQLALQHVLQKNHREDGILTKLICKVSTLRALCGRHTEKLMAFKAIYPDIVRLHFPPLYKELFTSEFEPAMQIDG
notes: also called retinoic acid-related orphan nuclear receptor (ROR)α; endogenous RORα

- binding result (β-catenin [2]): binds
B4: Flag-RORα S35D (receptor, UniProt P35398 1-523, looked up)
chain: MESAPAAPDPAASEPGSSGADAAAGSRETPLNQEDARKSEPPAPVRRQSYSSTSRGISVTKKTHTSQIEIIPCKICGDKSSGIHYGVITCEGCKGFFRRSQQSNATYSCPRQKNCLIDRTSRNRCQHCRLQKCLAVGMSRDAVKFGRMSKKQRDSLYAEVQKHRMQQQQRDHQQQPGEAEPLTPTYNISANGLTELHDDLSNYIDGHTPEGSKADSAVSSFYLDIQPSPDQSGLDINGIKPEPICDYTPASGFFPYCSFTNGETSPTVSMAELEHLAQNISKSHLETCQYLREELQQITWQTFLQEEIENYQNKQREVMWQLCAIKITEAIQYVVEFAKRIDGFMELCQNDQIVLLKAGSLEVVFIRMCRAFDSQNNTVYFDGKYASPDVFKSLGCEDFISFVFEFGKSLCSMHLTEDEIALFSAFVLMSADRSWLQEKVKIEKLQQKIQLALQHVLQKNHREDGILTKLICKVSTLRALCGRHTEKLMAFKAIYPDIVRLHFPPLYKELFTSEFEPAMQIDG
notes: not shown: Flag tag
